Measurements: PMC6895282

Target: TM52 (TetR-MphR hybrid regulator) (synthetic chimera of TetR and MphR; …, UniProt P04483 1-52+Q9EVJ6:56-194, internal_change)
Assay: EMSA

B1: TM52 operator fragment (hybrid tet operator, 2-bp spacer) (dsDNA)
DNA 1: GCGGTGATACTCCCTATCAGTTGATAGAGAGAGCACATCA
DNA 2: TGATGTGCTCTCTCTATCAACTGATAGGGAGTATCACCGC
binding result: binds
